In paper PMC7238434 (Nature protocols, 2019):
Where no end group is shown, it is not given here.

Experiments:
[1] = target: p7 protein from the Hepatitis C virus (HCV) (Hepatitis C virus) (UniProt O39928); experiment: cross-linking
cross-linking = target: the molecule itself; experiment: cross-linking
[2] = target: transmembrane domain of Fas (Fas-TMD); experiment: SDS-PAGE

**Q.** Which stoichiometry N [1] does the source give for “p7 protein from the Hepatitis C virus (HCV) (from UniProt O39928 748-810) (natural protein)” here?
**A.** 6

**Q.** With RSNLGWLCLLLLPIPLIVWVKRKEVQKT-His6 (domain or fragment, also: primary amines blocked with Sulfo-NHS Acetate) [Fas-TMD with a C-terminal His6-tag] as the molecule, how does the “stoichiometry N” value (cross-linking) read?
**A.** 3

**Q.** For RSNLGWLCLLLLPIPLIVWVKRKEVQKT (domain or fragment, modifications not checked) [transmembrane domain of Fas (Fas-TMD)], which stoichiometry N [2] is on record?
**A.** 3
